Experimental data from patent US12269859B2, “Synthetic immune receptors and methods of use thereof” (Angeles Therapeutics, Inc., priority 2016, dated 2025).

Test system: target antigen-expressing cell line
Assay: Jurkat NFAT-GFP assay, coculture with target cell lines expressing the respective target antigen (summary Table 10A)
Type: cell-based, human
Parameters: key: The signs +/−, +, 2+ etc. after the name of the cell lines indicate the relative degree of positivity on the Jurkat-NFAT-GFP assay as measured by the % GFP positive cells; +: relative degree of positivity on the Jurkat-NFAT-GFP assay as measured by the % GFP positive cells; 2+: relative degree of positivity on the Jurkat-NFAT-GFP assay as measured by the % GFP positive cells
Details: relative % GFP positive cells; for NFAT-GFP ASSAY Positive Cell lines: RAJI: SIR-expressing Jurkat-NFAT-GFP cells cocultured with RAJI
Outline: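 Jurkat cells carrying an NFAT-site IL-2 promoter driving GFP were lentivirally transduced with SIRs, puromycin-selected, then cocultured with antigen-expressing target cells at E:T about 1:2 for about 4–18 hours. GFP induction was read by flow cytometry as % GFP-positive cells versus parental Jurkat-NFAT-GFP.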

B1: 040417-R02 (protein)
chain: MALPVTALLLPLALLLHAARPEVQLVESGGGLVQPGRSLRLSCAASGFTFDDYAMHWVRQAPGKGLEWVSGISWNSGSIGYADSVKGRFTISRDNAKNSLYLQMNSLRAEDTALYYCAKDKGGGYYDFWSGSDYWGQGTLVTVSSLEDLKNVFPPEVAVFEPSKAEIAHTQKATLVCLATGFYPDHVELSWWVNGKEVHSGVCTDPQPLKEQPALNDSRYCLSSRLRVSATFWQNPRNHFRCQVQFYGLSENDEWTQDRAKPVTQIVSAEAWGRADCGITSASYHQGVLSATILYEILLGKATLYAVLVSALVLMAMVKRKDSRGRAKRSGSGATNFSLLKQAGDVEENPGPTSMDWIWRILFLVGAATGAHSFESSELTQDPAVSVALGQTVRITCQGDSLRSYYASWYQQKPGQAPVLVIYGKNNRPSGIPDRFSGSSSGNTASLTITGAQAEDEADYYCNSRDSSGWVFGGGTKLTVLTRIQNPDPAVYQLRDSKSSDKSVCLFTDFDSQTNVSQSKDSDVYITDKCVLDMRSMDFKSNSAVAWSNKSDFACANAFNNSIIPEDTFFPSSDVPCDVKLVEKSFETDTNLNFQNLSVIGFRILLLKVAGFNLLMTLRLWSSRAKRSGSGVKQTLNFDLLKLAGDVESNPGPSRGHMTEYKPTVRLATRDDVPRAVRTLAAAFADYPATRHTVDPDRHIERVTELQELFLTRVGLDIGKVWVADDGAAVAVWTTPESVEAGAVFAEIGPRMAELSGSRLAAQQQMEGLLAPHRPKEPAWFLATVGVSPDHQGKGLGSAVVLPGVEAAERAGVPAFLETSAPRNLPFYERLGFTVTADVEVPEGPRTWCMTRKPGA
In the case of B1, the “NFAT-GFP ASSAY Positive Cell lines: NALM6” value (SIR-expressing Jurkat-NFAT-GFP cells cocultured with NALM6) is reported as “(+)”.

B2: 041117-S01 (protein)
chain: MALPVTALLLPLALLLHAARPEVQLQQSGPGLVKPSQTLSLTCAISGDSVLSNSDTWNWIRQSPSRGLEWLGRTYHRSTWYDDYASSVRGRVSINVDTSKNQYSLQLNAVTPEDTGVYYCARDRLQDGNSWSDAFDVWGQGTMVTVSSLEDLKNVFPPEVAVFEPSKAEIAHTQKATLVCLATGFYPDHVELSWWVNGKEVHSGVCTDPQPLKEQPALNDSRYCLSSRLRVSATFWQNPRNHFRCQVQFYGLSENDEWTQDRAKPVTQIVSAEAWGRADCGITSASYHQGVLSATILYEILLGKATLYAVLVSALVLMAMVKRKDSRGRAKRSGSGATNFSLLKQAGDVEENPGPTSMDWIWRILFLVGAATGAHSFEQSALTQPASVSGSPGQSITISCTGTSSDVGGYNYVSWYQQHPGKAPKLMIYDVSNRPSGVSNRFSGSKSGNTASLTISGLQAEDEADYYCSSYTSSSTLVYVFGTGTKVTVLTRIQNPDPAVYQLRDSKSSDKSVCLFTDFDSQTNVSQSKDSDVYITDKCVLDMRSMDFKSNSAVAWSNKSDFACANAFNNSIIPEDTFFPSSDVPCDVKLVEKSFETDTNLNFQNLSVIGFRILLLKVAGFNLLMTLRLWSSRAKRSGSGVKQTLNFDLLKLAGDVESNPGPSRGHMTEYKPTVRLATRDDVPRAVRTLAAAFADYPATRHTVDPDRHIERVTELQELFLTRVGLDIGKVWVADDGAAVAVWTTPESVEAGAVFAEIGPRMAELSGSRLAAQQQMEGLLAPHRPKEPAWFLATVGVSPDHQGKGLGSAVVLPGVEAAERAGVPAFLETSAPRNLPFYERLGFTVTADVEVPEGPRTWCMTRKPGA
For B2, the “NFAT-GFP ASSAY Positive Cell lines: RAJI” value was “RAJI (+/−)”.

B3: 040417-V03 (protein)
chain: MALPVTALLLPLALLLHAARPEVQLVESGGGLVQPGRSLRLSCAASGFTFDDYAMHWVRQAPGKGLEWVSGISWNSGSIGYADSVKGRFTISRDNAKNSLYLQMNSLRAEDTALYYCAKDKGGGYYDFWSGSDYWGQGTLVTVSSLEIQNPDPAVYQLRDSKSSDKSVCLFTDFDSQTNVSQSKDSDVYITDKCVLDMRSMDFKSNSAVAWSNKSDFACANAFNNSIIPEDTFFPSSDVPCDVKLVEKSFETDTNLNFQNLSVIGFRILLLKVAGFNLLMTLRLWSSRAKRSGSGVKQTLNFDLLKLAGDVESNPGPTSMDWIWRILFLVGAATGAHSFESSELTQDPAVSVALGQTVRITCQGDSLRSYYASWYQQKPGQAPVLVIYGKNNRPSGIPDRFSGSSSGNTASLTITGAQAEDEADYYCNSRDSSGWVFGGGTKLTVLTREDLKNVFPPEVAVFEPSKAEIAHTQKATLVCLATGFYPDHVELSWWVNGKEVHSGVCTDPQPLKEQPALNDSRYCLSSRLRVSATFWQNPRNHFRCQVQFYGLSENDEWTQDRAKPVTQIVSAEAWGRADCGITSASYHQGVLSATILYEILLGKATLYAVLVSALVLMAMVKRKDSRGRAKRSGSGATNFSLLKQAGDVEENPGPSRGHMTEYKPTVRLATRDDVPRAVRTLAAAFADYPATRHTVDPDRHIERVTELQELFLTRVGLDIGKVWVADDGAAVAVWTTPESVEAGAVFAEIGPRMAELSGSRLAAQQQMEGLLAPHRPKEPAWFLATVGVSPDHQGKGLGSAVVLPGVEAAERAGVPAFLETSAPRNLPFYERLGFTVTADVEVPEGPRTWCMTRKPGA
In the case of B3, the “NFAT-GFP ASSAY Positive Cell lines: RAJI” value is reported as “RAJI (+/−)”.

B4: 040417-W08 (protein)
chain: MALPVTALLLPLALLLHAARPQVQLVQSGAEVKKPGASVKVSCKASGYTFTSYDINWVRQATGQGLEWMGWMNPNSGNTGYAQKFQGRVTMTRNTSISTAYMELSSLRSEDTAVYYCARGDSTKVEIKLEIQNPDPAVYQLRDSKSSDKSVCLFTDFDSQTNVSQSKDSDVYITDKCVLDMRSMDFKSNSAVAWSNKSDFACANAFNNSIIPEDTFFPSSDVPCDVKLVEKSFETDTNLNFQNLSVIGFRILLLKVAGFNLLMTLRLWSSRAKRSGSGVKQTLNFDLLKLAGDVESNPGPTSMDWIWRILFLVGAATGAHSFEQSVLTQPRSVSGSPGQSVTISCTGTSSDVGGYNYVSWYQQHPGEAPKLIIYDADKRPSGISNRFSSGKSGNTASLTISGLQVEDEADYYCCSYAGGSTWVFGGGTKVTVLTREDLKNVFPPEVAVFEPSKAEIAHTQKATLVCLATGFYPDHVELSWWVNGKEVHSGVCTDPQPLKEQPALNDSRYCLSSRLRVSATFWQNPRNHFRCQVQFYGLSENDEWTQDRAKPVTQIVSAEAWGRADCGITSASYHQGVLSATILYEILLGKATLYAVLVSALVLMAMVKRKDSRGRAKRSGSGATNFSLLKQAGDVEENPGPSRGHMTEYKPTVRLATRDDVPRAVRTLAAAFADYPATRHTVDPDRHIERVTELQELFLTRVGLDIGKVWVADDGAAVAVWTTPESVEAGAVFAEIGPRMAELSGSRLAAQQQMEGLLAPHRPKEPAWFLATVGVSPDHQGKGLGSAVVLPGVEAAERAGVPAFLETSAPRNLPFYERLGFTVTADVEVPEGPRTWCMTRKPGA
For B4, the “NFAT-GFP ASSAY Positive Cell lines: RAJI” value was “RAJI (2+)”.

B5: 041917-L04 (protein)
chain: MALPVTALLLPLALLLHAARPLEGKPIPNPLLGLDSTGSGEDLKNVFPPEVAVFEPSKAEIAHTQKATLVCLATGFYPDHVELSWWVNGKEVHSGVCTDPQPLKEQPALNDSRYCLSSRLRVSATFWQNPRNHFRCQVQFYGLSENDEWTQDRAKPVTQIVSAEAWGRADCGITSASYHQGVLSATILYEILLGKATLYAVLVSALVLMAMVKRKDSRGRAKRSGSGATNFSLLKQAGDVEENPGPTSMALPVTALLLPLALLLHAARPQVQLVQSGAEVKKPGASVKVSCKASGYTFTSYDINWVRQATGQGLEWMGWMNPNSGNTGYAQKFQGRVTMTRNTSISTAYMELSSLRSEDTAVYYCARGDSTKVEIKGGGGSGGGGSGGGGSQSVLTQPRSVSGSPGQSVTISCTGTSSDVGGYNYVSWYQQHPGEAPKLIIYDADKRPSGISNRFSSGKSGNTASLTISGLQVEDEADYYCCSYAGGSTWVFGGGTKVTVLTREQKLISEEDGSGIQNPDPAVYQLRDSKSSDKSVCLFTDFDSQTNVSQSKDSDVYITDKCVLDMRSMDFKSNSAVAWSNKSDFACANAFNNSIIPEDTFFPSSDVPCDVKLVEKSFETDTNLNFQNLSVIGFRILLLKVAGFNLLMTLRLWSSRAKRSGSGVKQTLNFDLLKLAGDVESNPGPSRGHMTEYKPTVRLATRDDVPRAVRTLAAAFADYPATRHTVDPDRHIERVTELQELFLTRVGLDIGKVWVADDGAAVAVWTTPESVEAGAVFAEIGPRMAELSGSRLAAQQQMEGLLAPHRPKEPAWFLATVGVSPDHQGKGLGSAVVLPGVEAAERAGVPAFLETSAPRNLPFYERLGFTVTADVEVPEGPRTWCMTRKPGA
B5 was tested, and the “NFAT-GFP ASSAY Positive Cell lines: RAJI” value was “RAJI (+/−)”.
